Measurements as given in patent US20240218023A1, “CYCLIC PEPTIDE-N-ACETYLGALACTOSAMINE (GALNAC) CONJUGATES FOR DRUG DELIVERY TO LIVER CELLS” (MICROBIO (SHANGHAI) CO., LTD., priority 2021, published 2024).
Square brackets hold non-standard residues; d marks the D form. Side chains are listed from the residue outwards. * marks the point of attachment. 5FAM = O=C1OC2(c3ccc(O)cc3Oc3cc(O)ccc32)c2ccc(C(=O)*)cc21; Linker2 = 6-aminohexyl amide linker

T1: asialoglycoprotein receptor (ASGPR) on HepG2 cells (human, UniProt P07306 1-291; P07307 1-311)
T1 construct: whole, on cells; also called ASGPR receptor on liver cells
T1 sequence (looked up) 1: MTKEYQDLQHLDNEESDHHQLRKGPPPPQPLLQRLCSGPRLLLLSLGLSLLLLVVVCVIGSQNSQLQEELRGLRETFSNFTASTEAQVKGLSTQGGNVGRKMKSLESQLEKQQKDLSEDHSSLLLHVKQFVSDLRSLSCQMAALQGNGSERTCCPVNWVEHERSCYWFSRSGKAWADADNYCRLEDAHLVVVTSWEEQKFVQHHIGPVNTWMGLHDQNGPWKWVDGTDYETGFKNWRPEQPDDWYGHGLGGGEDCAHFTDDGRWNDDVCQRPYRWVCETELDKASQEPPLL
T1 sequence (looked up) 2: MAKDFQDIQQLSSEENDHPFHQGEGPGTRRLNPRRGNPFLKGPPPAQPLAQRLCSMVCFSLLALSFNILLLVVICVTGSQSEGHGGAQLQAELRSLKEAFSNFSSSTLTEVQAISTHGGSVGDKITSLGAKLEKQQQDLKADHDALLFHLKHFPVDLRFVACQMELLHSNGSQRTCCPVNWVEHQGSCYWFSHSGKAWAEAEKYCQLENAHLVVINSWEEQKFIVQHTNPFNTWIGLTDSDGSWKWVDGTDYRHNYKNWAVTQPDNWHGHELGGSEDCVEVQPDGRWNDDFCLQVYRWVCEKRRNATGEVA


Columns and labels:
[1] = Cytotoxicity, viability of HepG2 cells by Cell Counting Kit-8 (CCK-8); format: cell-based; details: human, HepG2, 1.5625-50 μM, read-out: survival ratio of cells
Procedure: The cytotoxicity effect of cyclic peptide-tri-GalNAc were evaluated with the viability of HepG2 cells and analyzed by Cell Counting Kit-8 (CCK-8) (Dojindo Laboratories, Japan). The assay was performed according to manufacturer's protocol. Briefly, HepG2 were seeded in 96-well plates with a density of 6×10^4 cells per well and incubated at 37° C. with 5% CO2. As cells reached 70% confluence, medium was changed to MEM with 2% FBS and serial diluted cyclic peptide-tri-GalNAc with final concentration of 50, 25, 12.5, 6.25, 3.125 and 1.5625 μM were treated. After 24 h of treatment, 10 μL of CCK-8 solution was added to each well, and incubated for 1˜4 h at 37° C. The absorbance at 450 nm was measured by microplate reader (Thermo scientific, Multiskan sky, MA, USA). The survival ratio of cells treated with ID013, ID023 and commercialized tri-GalNAC are from 97˜100%.

[2] = Stability assay in human plasma (UPLC-FLR); format: in vitro ADME; details: 90% human plasma; for stability in human plasma: within 6 h; for remaining at 72 h, 20 nM: human plasma (90%), 37° C., read-out: remaining amount after 72 h of incubation
Procedure: FAM-labeled tri-GalNAc ligands were prepared with sterile water with final concentration of 200 nM. […] At the end of incubations, each mixture was added 300 μl of methanol to quench the reaction. The quenched samples were centrifuged at 20,000×g for 5 min and the supernatant was further filtered with 0.45 μm filters (Merck Millipore) to remove debris. The filtered samples were measured by UPLC-FLR detector (Waters, MA, USA).
5-FAM-CPMB-0013 (ID013), 5-FAM-CPMB-0023 (ID023) and commercialized tri-GalNAC were incubated with 90% of human plasma for different time points. The amount of each ligand was analyzed and quantified by UPLC system.

[3] = target: T1, asialoglycoprotein receptor (ASGPR) on …; experiment: flow cytometry titration on HepG2 cells (% FAM-positive cells, 1.6-200 nM, 24 h)
Procedure: Cells were seeded in 24-well plates with a density of 1.5×10⁵ cells per well and incubated under 37° C., 5% CO₂. After 18 h of incubation, media were replaced to MEM with 2% FBS and FAM-labeled ligands were added with final concentrations of 1.6, 8, 40 or 200 nM. After 24 h of incubation, cells were washed twice with 1×PBS and analyzed by LSRFortessa (BD Biosciences, NJ, USA). The binding efficiency was evaluated by the proportion of FAM positive cells.
HepG2 cell was treated by 14 cyclic peptide-tri-GalNAc ligand variants with serial diluted concentration of 1.6, 8, 40 or 200 nM. Commercialized tri-GalNAc used in Givosirna was used as positive control and cyclic peptide w/o tri-GalNAc was negative control. Among 14 variants, 5-FAM-CPMB-0013 (ID013), 5-FAM-CPMB-0023 (ID023) and 5-FAM-CPMB-0035 (ID035) had relatively higher binding ability as compared to others and commercialized tri-GalNAc. Equilibrium dissociation constant (kd) for 5-FAM-CPMB-0013 (ID013), 5-FAM-CPMB-0023 (ID023), 5-FAM-CPMB-0035 (ID035) and commercialized tri-GalNAC were 7.0, 8.6, 5.7 and 18 nM, respectively.

[4] = target: asialoglycoprotein receptor (ASGPR) on HepG2 cells (human) (UniProt P07306); experiment: flow cytometry, % FAM-positive HepG2 cells after 24 h with 200 nM ligand; negative control
[5] = target: asialoglycoprotein receptor (ASGPR) on HepG2 cells (human) (UniProt P07306); experiment: flow cytometry, % FAM-positive HepG2 cells after 24 h with 8 nM ligand; negative control
[6] = target: asialoglycoprotein receptor (ASGPR) on HepG2 cells (human) (UniProt P07306); experiment: flow cytometry, % FAM-positive HepG2 cells after 24 h with 1.6 nM ligand; negative control
[7] = target: asialoglycoprotein receptor (ASGPR) on HepG2 cells (human) (UniProt P07306); experiment: flow cytometry, % FAM-positive HepG2 cells after 24 h with 40 nM ligand; negative control

| Molecule | viability at 24 h [1] | stability in human plasma [2] | remaining at 72 h, 20 nM [2] | further results |
| --- | --- | --- | --- | --- |
| CC(=O)N[C@H]1[C@H](OCCCC(=O)NCCCC[C@@H]2NC(=O)CNC(=O)[C@H](CCCCNC(=O)CCCO[C@@H]3O[C@H](CO)[C@H](O)[C@H](O)[C@H]3NC(C)=O)NC(=O)[C@H](CCC(=O)NCCCCCCNC(=O)c3ccc4c(c3)C(=O)OC43c4ccc(O)cc4Oc4cc(O)ccc43)NC(=O)[C@H](CCCCNC(=O)CCCO[C@@H]3O[C@H](CO)[C@H](O)[C@H](O)[C@H]3NC(C)=O)NC(=O)CNC2=O)O[C@H](CO)[C@H](O)[C@@H]1O [5-FAM-CPMB-0013] | 97 to 100% | highly stable | 92.7% | – |
| CC(=O)N[C@H]1[C@H](OCCCC(=O)NCCCC[C@H]2NC(=O)CNC(=O)[C@@H](CCCCNC(=O)CCCO[C@@H]3O[C@H](CO)[C@H](O)[C@H](O)[C@H]3NC(C)=O)NC(=O)[C@@H](CCC(=O)NCCCCCCNC(=O)c3ccc4c(c3)C(=O)OC43c4ccc(O)cc4Oc4cc(O)ccc43)NC(=O)[C@@H](CCCCNC(=O)CCCO[C@@H]3O[C@H](CO)[C@H](O)[C@H](O)[C@H]3NC(C)=O)NC(=O)CNC2=O)O[C@H](CO)[C@H](O)[C@@H]1O [5-FAM-CPMB-0023] | 97 to 100% | highly stable | 85.8% | – |
| KEKGKG (head-to-tail cyclic; each Lys side chain carries GalNAc via linker Gal-3; Glu side chain carries Linker2 (6-aminohexyl amide) with 5-FAM, also called ID013) [5-FAM-CPMB-0013] | – | – | – | Kd [3]: 7 nM |
| cyclo(K[dE]([Linker2-5FAM])KGKG) (also: Lys side chains: Gal-1 with suffix -Ac per table, 'w/o tri-GalNAc' per text) [5-FAM-CPMB-0031-Ac (negative control)] | – | – | – | Efficiency (%) (proportion of FAM positive cells) [4]: 0.4%; Efficiency (%) (proportion of FAM positive cells) [5]: 0.1%; Efficiency (%) (proportion of FAM positive cells) [6]: 0.1%; Efficiency (%) (proportion of FAM positive cells) [7]: 0.2% |
